From patent US11340233B2, “Universal method to capture and analyze ADCs for characterization of drug distribution and the drug-to-antibody ratio in biological samples” (priority 2016, dated 2022)

Columns and labels:
[1] = In vitro ADC stability in cynomolgus monkey serum, immunoprecipitation, reduction and LC-MS; assay type: in vitro ADME, Cynomolgus (Macaca fascicularis); conditions: spiked 100 μg/mL, 37° C.
Experimental: (§1) ADCs were spiked in sterile mouse, rat or cynomolgus serum at a concentration of 100 μg/ml. Aliquots of 100 μl were incubated at +37° C. in Protein LoBind Tube (Eppendorf, Montesson, France). At specific times (day 1, day 4, day 7 and day 11) samples were removed from the oven and stored at −20° C. until sample processing and analysis.
ADCs were immunoprecipitated from sera using the following protocol. Briefly, 100 μl M-280 Streptavidin magnetics beads suspension were washed three times with HBS-EP buffer (0.01 M HEPES pH 7.4, 0.15 M NaCl, 3 mM EDTA, 0.005% v/v Surfactant P20) and incubated for 30 min at RT with the CaptureSelect™ Human IgG-Fc PK Biotin conjugate. Serum samples from stability studies were then added to the beads and incubated for 2 h at RT. After washing steps with HBS-EP buffer and HBS buffer (10 mM HEPES, 150 mM NaCl, 3 mM EDTA pH 7.6), the ADC was eluted with 0.4% TFA in water. After freeze drying, the samples were reconstituted and incubated with 34 mM DTT in denaturing buffer (6 M Guanidine, 0.1 M Tris, 2 mM EDTA pH 8.0) for 45 min at 56° C.
Acetic acid was then added to quench the reaction and samples were analysed by LC-MS.
Reverse phase separation was performed on an ultra-high performance liquid chromatography (UHPLC) system (Acquity UPLC H-Class Bio system, Waters) coupled to a Synapt G2si mass spectrometer, instrument control was performed using MassLynx® software (Waters).
The reduced samples were directly injected on a PLRP-S column (2.1×150 mm 8 μm, 1000 Å, Agilent) heated at 80° C. with a flow rate of 0.5 ml/min. Elution was performed with water as eluent A and acetonitrile as eluent B, both containing 0.05% TFA. The following elution gradient was applied, B was raised from 30% to 45% in 13 min and then from 45% to 95% in 2 min. The column was washed using 95% B and equilibrated using 30% B for 10 min. The autosampler temperature was set at 10° C. […]
Data were analysed using Biopharmalynx™ (Waters) software. […]

[2] = In vitro stability in cynomolgus monkey serum by total antibody and ADC ELISAs; assay type: in vitro ADME, Cynomolgus (Macaca fascicularis); conditions: 37° C., ELISA
Experimental: as §1
Four different Ligand Binding Assay (LBAs) systems were used to determine Total Ab or ADC concentrations for ADC1 and ADC2[19]. More precisely, an antigen-specific assay was used for ADC1 and a universal method for ADC2. For the ADC quantification, specific anti-drugs were used relevant to the payload of the ADC.
Briefly, standard microtiter plates (MSD, Gaithersburg, USA) were coated at a concentration of 2 μg/ml Goat anti Human IgG, Monkey adsorbed antibody (SouthernBiotech) for Total Ab or of 3 μg/ml mouse monoclonal antibody raised against the payloads (Epitope Diagnostic Inc.) for ADC assays in PBS. After an overnight incubation at 4° C., plates were treated with blocking buffer (3% MSD Blocker A (MSD, Gaithersburg, USA)) for 1 h at 37° C. In parallel, the standard curves (1000 ng/ml-0.488 ng/ml) using reference immunoconjugates (ADC1 or ADC2) were prepared in assay buffer (1% MSD Blocker in TBS+0.02% Tween 20). Serum samples were diluted to 1:1000 or 1:5000 in a separate 2-ml deep 96-well polypropylene plate in MSD assay buffer. Standards and samples were then loaded onto the assay plate and incubated for 1 h at 37° C. After washing with 1×PBS, the detection step was done using a 2.5 μg/ml solution of the biotinylated antigen for the ADC1 (in house preparation) or a goat anti-human Ig Kappa sulfo-tag solution (in house preparation) diluted to 1 μg/ml in assay buffer for ADC2. After a 30-min incubation at 37° C., and a washing step, the detection was allowed by adding 150 μl of a 2×MSD-read T buffer containing surfactant (MSD, Gaithersburg, USA) just before reading using MSD Sector Imager.
The amount of total antibody and ADC, in serum samples was evaluated in parallel by a quantitative sandwich ELISA. […]

Brentuximab vedotin [ADC2]
average DAR ([1]; day 0): 4.5
average DAR ([1]; day 4): 2.0
average DAR ([1]; days 4 to 11): stable
ADC level normalized against the total Ab concentration at each time point ([2]; 11 days): decreased mainly during the four first days
ADC concentration ([2]; over the 11-day period): decreased during this period
total Ab level ([2]; over the 11-day period): ~100 µg/mL
